Experiment [1] addresses integrin β1 subunit on HUVEC cells (human) (UniProt P05556). Description: HUVEC binding to type IV collagen-coated plates; 10 µg/ml antibody, against control IgG; the blocked ligand is type IV collagen.
Experiment [2] shares this target. Description: HUVEC attachment to Tumstatin-coated plates (10 µg/ml); 10 µg/ml antibody, against control IgG; the blocked ligand is Tumstatin.
Experiment [3] shares this target. The experiment in a line: HUVEC adhesion to Arresten-coated wells (10 µg/ml); cells pre-mixed with 10 µg/ml antibody; the blocked ligand is Arresten.
Experiment [4] shares this target. Description: HUVEC adhesion to collagen Type IV-coated wells (10 µg/ml); 10 µg/ml antibody; the blocked ligand is type IV collagen.
Experiment [5] shares this target. The experiment in a line: HUVEC attachment to plates coated with E. coli-expressed Tumstatin-44-131 (10 µg/ml); 10 µg/ml antibody; the blocked ligand is Tumstatin-44-131.
The target in experiment [6] is human αvβ3 protein (CHEMICON), soluble (human) (UniProt P06756). The experiment in a line: cell-based or functional assay.
Experiment [7] deals with αvβ3 integrin on C-PAE cells (bovine) (UniProt P80746). The experiment in a line: C-PAE attachment to Tum-2-coated plates; the blocked ligand is Tum-2.
For experiment [8] the target is unchanged. The experiment in a line: C-PAE attachment to Tum-4-coated plates; the blocked ligand is Tum-4.
Experiment [9] concerns the target αvβ3 integrin on HUVEC cells (human) (UniProt P06756). Description: HUVEC attachment to Tumstatin-coated plates; αvβ3 antibody used TOGETHER with β1 antibody; the blocked ligand is Tumstatin.
Experiment [10] shares this target. Description: HUVEC attachment to Tumstatin-coated plates (10 µg/ml); 10 µg/ml antibody, against control IgG; the blocked ligand is Tumstatin.
Experiment [11] has as its target αvβ3 integrin on C-PAE cells (bovine) (UniProt P80746). Description: C-PAE attachment to Tum-1-coated plates; the blocked ligand is Tum-1.
For experiment [12], the target named is αvβ3 integrin on HUVEC cells (human) (UniProt P06756). The experiment in a line: HUVEC adhesion to collagen Type IV-coated wells (10 µg/ml); 10 µg/ml antibody; the blocked ligand is type IV collagen.
Experiment [13] shares this target. The experiment in a line: HUVEC binding to vitronectin-coated plates; 10 µg/ml antibody; the blocked ligand is vitronectin.
For experiment [14] the target is unchanged. The experiment in a line: HUVEC attachment to plates coated with E. coli-expressed Tumstatin-44-131 (10 µg/ml); 10 µg/ml antibody; the blocked ligand is Tumstatin-44-131.

integrin β1 subunit on HUVEC cells (human), sequence (P05556 21-798): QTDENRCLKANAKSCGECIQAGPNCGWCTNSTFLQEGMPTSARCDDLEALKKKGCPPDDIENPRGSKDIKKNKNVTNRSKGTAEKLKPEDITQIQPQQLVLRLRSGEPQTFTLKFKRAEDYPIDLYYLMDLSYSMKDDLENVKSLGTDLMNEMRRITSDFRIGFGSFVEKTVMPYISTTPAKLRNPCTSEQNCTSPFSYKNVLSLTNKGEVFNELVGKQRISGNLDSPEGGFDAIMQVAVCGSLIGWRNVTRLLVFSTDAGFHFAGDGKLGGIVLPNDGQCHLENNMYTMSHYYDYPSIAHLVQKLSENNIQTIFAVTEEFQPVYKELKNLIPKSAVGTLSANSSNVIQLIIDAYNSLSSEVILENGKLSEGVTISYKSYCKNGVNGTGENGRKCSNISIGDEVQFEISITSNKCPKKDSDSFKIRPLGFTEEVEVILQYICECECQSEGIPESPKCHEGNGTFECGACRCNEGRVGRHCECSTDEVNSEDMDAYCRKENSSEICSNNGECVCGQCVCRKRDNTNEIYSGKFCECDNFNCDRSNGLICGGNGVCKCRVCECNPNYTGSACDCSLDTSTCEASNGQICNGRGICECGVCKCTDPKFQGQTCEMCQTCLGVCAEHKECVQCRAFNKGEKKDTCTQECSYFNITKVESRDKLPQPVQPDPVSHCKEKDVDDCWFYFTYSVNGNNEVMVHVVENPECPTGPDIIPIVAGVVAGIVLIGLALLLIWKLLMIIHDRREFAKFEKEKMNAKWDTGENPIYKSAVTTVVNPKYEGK
αvβ3 integrin on HUVEC cells (human), sequence (P06756 31-1048, chain 1 of 2): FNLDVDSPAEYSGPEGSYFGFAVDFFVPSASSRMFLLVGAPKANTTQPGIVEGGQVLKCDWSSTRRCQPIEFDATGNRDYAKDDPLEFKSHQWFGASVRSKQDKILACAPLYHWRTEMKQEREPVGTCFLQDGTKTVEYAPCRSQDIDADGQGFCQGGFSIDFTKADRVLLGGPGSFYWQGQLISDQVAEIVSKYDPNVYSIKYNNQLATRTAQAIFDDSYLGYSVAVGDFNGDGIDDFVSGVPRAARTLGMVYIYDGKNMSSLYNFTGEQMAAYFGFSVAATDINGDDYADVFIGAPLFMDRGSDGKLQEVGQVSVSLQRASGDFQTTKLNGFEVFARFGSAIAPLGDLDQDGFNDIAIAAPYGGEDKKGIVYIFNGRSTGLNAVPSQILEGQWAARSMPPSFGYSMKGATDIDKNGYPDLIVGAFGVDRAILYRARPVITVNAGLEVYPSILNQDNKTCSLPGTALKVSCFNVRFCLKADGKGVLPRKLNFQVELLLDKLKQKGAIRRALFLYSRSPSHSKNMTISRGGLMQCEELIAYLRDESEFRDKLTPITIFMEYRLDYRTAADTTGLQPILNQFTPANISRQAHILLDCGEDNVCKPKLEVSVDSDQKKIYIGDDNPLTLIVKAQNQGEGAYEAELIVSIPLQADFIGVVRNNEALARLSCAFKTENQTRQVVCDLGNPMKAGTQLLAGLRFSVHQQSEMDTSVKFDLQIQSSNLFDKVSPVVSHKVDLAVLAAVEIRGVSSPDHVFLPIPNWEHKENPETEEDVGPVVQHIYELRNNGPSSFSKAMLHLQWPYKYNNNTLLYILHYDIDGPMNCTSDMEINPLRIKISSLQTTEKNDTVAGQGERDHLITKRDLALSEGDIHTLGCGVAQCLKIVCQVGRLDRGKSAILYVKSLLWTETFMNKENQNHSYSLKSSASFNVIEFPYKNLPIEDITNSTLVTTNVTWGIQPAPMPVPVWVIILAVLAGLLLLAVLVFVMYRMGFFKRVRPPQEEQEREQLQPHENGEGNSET
αvβ3 integrin on HUVEC cells (human), sequence (P05106 27-788, chain 2 of 2, further chain): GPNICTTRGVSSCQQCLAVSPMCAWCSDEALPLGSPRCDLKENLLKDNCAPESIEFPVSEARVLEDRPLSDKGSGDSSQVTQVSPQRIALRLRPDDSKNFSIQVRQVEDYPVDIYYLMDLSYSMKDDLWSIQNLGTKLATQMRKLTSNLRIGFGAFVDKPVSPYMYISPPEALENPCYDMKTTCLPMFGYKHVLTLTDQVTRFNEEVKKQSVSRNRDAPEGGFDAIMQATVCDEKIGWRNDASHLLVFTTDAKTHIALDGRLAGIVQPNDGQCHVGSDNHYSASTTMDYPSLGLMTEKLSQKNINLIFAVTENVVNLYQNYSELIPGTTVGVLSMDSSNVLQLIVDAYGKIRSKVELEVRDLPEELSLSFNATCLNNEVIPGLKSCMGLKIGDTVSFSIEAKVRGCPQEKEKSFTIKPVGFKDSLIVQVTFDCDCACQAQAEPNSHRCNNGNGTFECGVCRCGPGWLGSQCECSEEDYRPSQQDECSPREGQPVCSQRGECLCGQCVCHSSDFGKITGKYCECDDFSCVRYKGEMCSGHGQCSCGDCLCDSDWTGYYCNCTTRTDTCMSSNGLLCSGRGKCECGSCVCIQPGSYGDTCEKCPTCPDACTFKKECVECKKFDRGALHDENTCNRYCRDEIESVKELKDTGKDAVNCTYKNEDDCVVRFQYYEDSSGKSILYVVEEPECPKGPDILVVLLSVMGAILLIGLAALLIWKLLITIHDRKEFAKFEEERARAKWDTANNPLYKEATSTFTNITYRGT
αvβ3 integrin on C-PAE cells (bovine), sequence (P80746 31-1048): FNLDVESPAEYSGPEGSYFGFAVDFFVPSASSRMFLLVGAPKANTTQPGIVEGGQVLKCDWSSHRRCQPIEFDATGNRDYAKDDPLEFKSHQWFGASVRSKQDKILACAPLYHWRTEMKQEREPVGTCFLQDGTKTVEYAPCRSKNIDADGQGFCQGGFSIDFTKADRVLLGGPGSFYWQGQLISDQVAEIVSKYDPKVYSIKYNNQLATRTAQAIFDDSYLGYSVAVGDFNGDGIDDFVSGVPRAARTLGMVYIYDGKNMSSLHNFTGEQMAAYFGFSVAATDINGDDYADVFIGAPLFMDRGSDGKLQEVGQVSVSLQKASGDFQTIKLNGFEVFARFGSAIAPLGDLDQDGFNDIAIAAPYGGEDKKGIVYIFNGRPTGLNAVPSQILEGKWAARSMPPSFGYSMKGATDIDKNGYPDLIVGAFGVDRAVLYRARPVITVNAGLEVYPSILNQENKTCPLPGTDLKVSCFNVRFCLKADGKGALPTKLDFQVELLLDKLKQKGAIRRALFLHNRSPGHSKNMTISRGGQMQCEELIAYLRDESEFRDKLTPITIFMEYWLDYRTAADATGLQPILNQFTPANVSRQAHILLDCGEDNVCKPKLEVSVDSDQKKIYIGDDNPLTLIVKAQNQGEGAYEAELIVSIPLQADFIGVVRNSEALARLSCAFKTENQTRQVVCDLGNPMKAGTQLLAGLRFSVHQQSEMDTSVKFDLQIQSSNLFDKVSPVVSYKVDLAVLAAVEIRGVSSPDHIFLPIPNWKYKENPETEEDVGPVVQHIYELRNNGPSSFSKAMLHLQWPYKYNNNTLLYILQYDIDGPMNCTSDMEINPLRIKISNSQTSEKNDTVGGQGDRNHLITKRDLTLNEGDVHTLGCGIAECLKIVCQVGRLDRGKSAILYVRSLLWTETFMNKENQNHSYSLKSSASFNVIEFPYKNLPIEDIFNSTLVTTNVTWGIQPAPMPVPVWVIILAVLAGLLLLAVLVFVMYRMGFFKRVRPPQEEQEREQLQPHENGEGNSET

For the substance “mouse monoclonal antibody to the human β1 integrin subunit (clone P4C10)”, the % inhibition of cell binding in experiment [1] stood at 53%. For the same substance, the % inhibition of cell attachment in experiment [2] worked out at 54%; in experiment [5], 47.5%. Moreover, the results for the % inhibition of cell adhesion in experiment [3] and in [4] were 70% and 40%, respectively.

Regarding “Tum-2 (from UniProt Q01955 1427-1558) (ligand)”, the recovery of Tum-2's anti-proliferative effect on C-PAE cells after pre-incubation with αvβ3 protein (methylene blue) in experiment [6] was 74.1%.

Consider “monoclonal antibody to αvβ3 integrin (clone LM609, CHEMICON)”, for which the % inhibition of cell attachment in experiment [7] was 69.8%; in experiment [8], 62.6%; in experiment [9], 91%; in experiment [10], 80%; in [11] it was 55.9%; in experiment [14], 47.1%. This substance registered a % inhibition of cell adhesion in experiment [12] of 15%. The % inhibition of cell binding in [13] turned out to be 61%.

For the substance “Tum-4 (from UniProt Q01955 1607-1670) (ligand)”, in experiment [6], the recovery of the Tum-4-induced anti-proliferative effect on WM-164 melanoma cells after pre-incubation with αvβ3 protein (methylene blue) came out at 76.7%.

The values above are taken from patent publication US20090054344A1.
